Data on three molecules can be found in US20070212357A1 (published 2007).

For assay [1], the target named is T1, human NGF (human, UniProt P01138 122-241).
T1 construct: also called hNGF; human nerve growth factor
Description: SPR (BIAcore), Fab over immobilized human NGF. On the technique in general: SPR reads the build-up and loss of mass on a sensor chip optically.

Assay [2] deals with T1, human NGF. Description: cell-based or functional assay.
The next assay addresses rat NGF (rat) (UniProt P25427). In words: cell-based or functional assay.
Assay [3] has as its target T1, human NGF. Description: SPR (BIAcore), Fab over CM5 chip with 100 RU of immobilized human NGF.
The target of assay [4] is T1, human NGF. In words: SPR (BIAcore), Fab over immobilized human NGF. The source holds these as a separate data set.
For assay [5], the target named is T1, human NGF. In words: SPR (BIAcore), human NGF on chip; KD calculated using kon 4e4 M-1s-1.
Assay [6] addresses T1, human NGF. Description: SPR (BIAcore) screening, human NGF on chip; KD calculated using kon 4e4 M-1s-1. The protocol:
Affinities of anti-NGF Fabs and monoclonal antibodies were determined using the BIAcore3000™ surface plasmon resonance (SPR) system (BIAcore, INC, Piscaway N.J.). CM5 chips were activated with N-ethyl-N′-(3-dimethylaminopropyl)-carbodiinide hydrochloride (EDC) and N-hydroxysuccinimide (NHS) according to the supplier's instructions. Human NGF was diluted into 10 mM sodium acetate pH 4.0 and injected over the activated chip at a concentration of 0.005 mg/mL. Using variable flow time across the individual chip channels, two ranges of antigen density were achieved: 100-200 response units (RU) for detailed kinetic studies and 500-600 RU for screening assays. The chip was blocked with ethanolamine. […] HBS-EP buffer (0.01M HEPES, pH 7.4, 0.15 NaCl, 3 mM EDTA, 0.005% Surfactant […]) was used as running buffer for all the BIAcore assays.

T1 sequence (P01138 122-241 limits assumed): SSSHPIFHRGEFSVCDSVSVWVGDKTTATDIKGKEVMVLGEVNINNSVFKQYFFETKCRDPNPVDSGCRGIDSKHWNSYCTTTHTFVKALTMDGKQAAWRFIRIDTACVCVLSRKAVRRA
rat NGF (rat), sequence (P25427 122-241 limits assumed): as the sequence (P01138 122-241 limits assumed) above, with S3T, I6V, R9M, M37T, D60A, D65E, M92T, G94D, V117A, A120G counted along it

For orientation: Kd means a measure of binding affinity in units of concentration. By koff is commonly meant the rate constant with which the complex falls apart. Read a low koff as a long-lived complex. Usually kon stands for the second-order rate constant of association. For mouse antibody 911 (Fab), in the assay with human NGF [1], the Kd is 3.7 nM, the off-rate (koff) was 9e-05 s⁻¹ and the kon is 22000 M⁻¹ s⁻¹. In the assay with human NGF [2], the IC50 (in the presence of 1.5 pM NGF), human NGF-dependent survival of mouse E13.5 trigeminal neurons was determined as 63.5 pM and the IC50 (in the presence of 15 pM NGF), human NGF-dependent survival of mouse E13.5 trigeminal neurons was determined as 322 pM. For the same molecule, in the assay with rat NGF (rat), the IC50 (1.5 pM NGF), rat NGF-dependent survival of mouse E13.5 trigeminal neurons was found to be 34.6 pM and the IC50 (15 pM NGF), rat NGF-dependent survival of mouse E13.5 trigeminal neurons was determined as 161 pM. In the assay with human NGF [3], the koff came out at 8.4e-05 s⁻¹. In addition, in the assay with human NGF [4], the Kd worked out at 10 nM.

B1: H19-L129 (Fab, V domains shown)
VH: QVQLQESGPGLVKPSETLSLTCTVSGFSLIGYDLNWIRQPPGKGLEWIGIIWGDGTTDYNSAVKSRVTISKDTSKNQFSLKLSSVTAADTAVYYCARGGYYYGTSYYFDYWGQGTLVTVS
VL: DIQMTQSPSSLSASVGDRVTITCRASQSISNNLNWYQQKPGKAPKLLIYYTSRFHSGVPSRFSGSGSGTDFTFTISSLQPEDIATYYCQQSKTLPYTFGQGTKLEIKR
notes: Combined clone with matured CDRs H1, H2, L1, L2 and grafted H3 and L3; Fab; human Ck, human IgG2a CH1, his tag; also called H19-L129 Fab; Fab H19-L129
As to B1, the Kd with human NGF [5] was 3.5 nM.

B2: L_S91E; L_K92R; H_Y101W; H_G103A (8L2-6D5 template) (Fab, V domains shown)
VH: QVQLQESGPGLVKPSETLSLTCTVSGFSLIGYDINWIRQPPGKGLEWIGMIWGDGTTDYNSALKSRVTISKDTSKNQFSLKLSSVTAADTAVYYCARGGYWYATSYYFDYWGQGTLVTVS
VL: DIQMTQSPSSLSASVGDRVTITCRASQDISNHLNWYQQKPGKAPKLLIYYISRFHSGVPSRFSGSGSGTDFTFTISSLQPEDIATYYCQQERTLPYTFGQGTKLEIKR
notes: Human Ck, human IgG2a CH1, his tag
As to B2, the Kd in the assay with human NGF [6] is 25 nM.
